The record followed here is PMC8175417, “Streptococcus pneumoniae pneumolysin and neuraminidase A convert high-density lipoproteins into pro-atherogenic particles” (iScience, 2021).

This data set deals with the molecule itself. As to the kind of experiment: non-reducing SDS-PAGE with Western blot; hirudin blood incubated with 200 nM PLY for 1 h at 37 °C; total HDL isolated from the plasma by flotation ultracentrifugation; samples and 50 ng PLY control run under non-reducing conditions; detected with anti-penta-His antibody. (In general: A western blot detects proteins with antibodies after separation by electrophoresis.)

B1: Recombinant Streptococcus pneumoniae serotype 2 Pneumolysin (PLY) (natural protein, UniProt Q04IN8 1-471, looked up)
chain: MANKAVNDFILAMNYDKKKLLTHQGESIENRFIKEGNQLPDEFVVIERKKRSLSTNTSDISVTATNDSRLYPGALLVVDETLLENNPTLLAVDRAPMTYSIDLPGLASSDSFLQVEDPSNSSVRGAVNDLLAKWHQDYGQVNNVPARMQYEKITAHSMEQLKVKFGSDFEKTGNSLDIDFNSVHSGEKQIQIVNFKQIYYTVSVDAVKNPGDVFQDTVTVEDLKQRGISAERPLVYISSVAYGRQVYLKLETTSKSDEVEAAFEALIKGVKVAPQTEWKQILDNTEVKAVILGGDPSSGARVVTGKVDMVEDLIQEGSRFTADHPGLPISYTTSFLRDNVVATFQNSTDYVETKVTAYRNGDLLLDHSGAYVAQYYITWDELSYDHQGKEVLTPKAWDRNGQDLTAHFTTSIPLKGNVRNLSVKIRECTGLAWEWWRTVYEKTDLPLVRKRTISIWGTTLYPQVEDKVEND
notes: Pneumolysin (PLY), Streptococcus pneumoniae serotype 2; recombinant protein bought from Cusabio; Detected with a penta-His antibody
Take B1: the binding result is reported as “binds”.
